Source: the supplement of paper PMC5998384

Legend:
HeLa Kyoto [1] = experiment: melting temperature (median over replicates), in situ; higher = more thermally stable
HeLa Kyoto [2] = experiment: solubility change mitosis vs G1/S (difference of NP-40 vs SDS log2 ratios) (log2 ratio difference); higher = more soluble in mitosis
HeLa Kyoto [3] = experiment: solubility in G1/S (NP-40 vs SDS abundance) (log2 ratio); higher = more soluble; settings: cell cycle stage: G1/S
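Wherever melting temperature (median over replicates), in situ is given: HeLa Kyoto cells synchronized by double thymidine or nocodazole block, proteins quantified by TMT10plex mass spectrometry, three independent biological replicates.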
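Wherever solubility change mitosis vs G1/S (difference of NP-40 vs SDS log2 ratios) is given: synchronized HeLa Kyoto cells (double thymidine block for G1/S, nocodazole release for mitosis), protein amounts in NP-40 versus SDS lysates quantified by mass spectrometry, three biological replicates.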
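Wherever solubility in G1/S (NP-40 vs SDS abundance) is given: HeLa Kyoto cells arrested at G1/S by double thymidine block, proteins quantified by TMT10plex mass spectrometry in mild NP-40 versus SDS extracts, three biological replicates.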

Row | Sequence | melting temperature (HeLa Kyoto [1]; cell cycle stage: G1/S) [°C] | melting temperature (HeLa Kyoto [1]; cell cycle stage: mitosis) [°C] | solubility change mitosis (log2) (HeLa Kyoto [2]) | solubility in G1/S (log2) (HeLa Kyoto [3])
1 | MEEEGVKEAGEKPRGAQMVDKAGWIKKSSGGLLGFWKDRYLLLCQAQLLVYENEDDQKCVETVELGSYEKCQDLRALLKRKHRFILLRSPGNKVSDIKFQAPTGEEKESWIKALNEGINRGKNKAFDEVKVDKSCALEHVTRDRVRGGQRRRPPTRVHLKEVASAASDGLLRLDLDVPDSGPPVFAPSNHVSEAQPRETPRPLMPPTKPFLAPETTSPGDRVETPVGERAPTPVSASSEVSPESQEDSETPAEEDSGSEQPPNSVLPDKLKVSWENPSPQEAPAAESAEPSQAPCSETSEAAPREGGKPPTPPPKILSEKLKASMGEMQASGPPAPGTVQVSVNGMDDSPEPAKPSQAEGTPGTPPKDATTSTALPPWDLPPQFHPRCSSLGDLLGEGPRHPLQPRERLYRAQLEVKVASEQTEKLLNKVLGSEPAPVSAETLLSQAVEQLRQATQVLQEMRDLGELSQEAPGLREKRKELVTLYRRSAP [PLEKHO2] | 53.2 | 51.9 | 0.0528 | 0.188
2 | MEELTIWEQHTATLSKDPRRGFGIAISGGRDRPGGSMVVSDVVPGGPAEGRLQTGDHIVMVNGVSMENATSAFAIQILKTCTKMANITVKRPRRIHLPATKASPSSPGRQDSDEDDGPQRVEEVDQGRGYDGDSSSGSGRSWDERSRRPRPGRRGRAGSHGRRSPGGGSEANGLALVSGFKRLPRQDVQMKPVKSVLVKRRDSEEFGVKLGSQIFIKHITDSGLAARHRGLQEGDLILQINGVSSQNLSLNDTRRLIEKSEGKLSLLVLRDRGQFLVNIPPAVSDSDSSPLEDISDLASELSQAPPSHIPPPPRHAQRSPEASQTDSPVESPRLRRESSVDSRTISEPDEQRSELPRESSYDIYRVPSSQSMEDRGYSPDTRVVRFLKGKSIGLRLAGGNDVGIFVSGVQAGSPADGQGIQEGDQILQVNDVPFQNLTREEAVQFLLGLPPGEEMELVTQRKQDIFWKMVQSRVGDSFYIRTHFELEPSPPSGLGFTRGDVFHVLDTLHPGPGQSHARGGHWLAVRMGRDLREQERGIIPNQSRAEQLASLEAAQRAVGVGPGSSAGSNARAEFWRLRGLRRGAKKTTQRSREDLSALTRQGRYPPYERVVLREASFKRPVVILGPVADIAMQKLTAEMPDQFEIAETVSRTDSPSKIIKLDTVRVIAEKDKHALLDVTPSAIERLNYVQYYPIVVFFIPESRPALKALRQWLAPASRRSTRRLYAQAQKLRKHSSHLFTATIPLNGTSDTWYQELKAIIREQQTRPIWTAEDQLDGSLEDNLDLPHHGLADSSADLSCDSRVNSDYETDGEGGAYTDGEGYTDGEGGPYTDVDDEPPAPALARSSEPVQADESQSPRDRGRISAHQGAQVDSRHPQGQWRQDSMRTYEREALKKKFMRVHDAESSDEDGYDWGPATDL [TJP3] | 50.3 | 50.8 | 0.0692 | -0.105
3 | MEGGGGIPLETLKEESQSRHVLPASFEVNSLQKSNWGFLLTGLVGGTLVAVYAVATPFVTPALRKVCLPFVPATTKQIENVVKMLRCRRGSLVDIGSGDGRIVIAAAKKGFTAVGYELNPWLVWYSRYRAWREGVHGSAKFYISDLWKVTFSQYSNVVIFGVPQMMLQLEKKLERELEDDARVIACRFPFPHWTPDHVTGEGIDTVWAYDASTFRGREKRPCTSMHFQLPIQA [FAM173B] | 54.7 | – | -0.0503 | -0.208
4 | MEGQSVEELLAKAEQDEAEKLQRITVHKELELQFDLGNLLASDRNPPTGLRCAGPTPEAELQALARDNTQLLINQLWQLPTERVEEAIVARLPEPTTRLPREKPLPRPRPLTRWQQFARLKGIRPKKKTNLVWDEVSGQWRRRWGYQRARDDTKEWLIEVPGNADPLEDQFAKRIQAKKERVAKNELNRLRNLARAHKMQLPSAAGLHPTGHQSKEELGRAMQVAKVSTASVGRFQERLPKEKVPRGSGKKRKFQPLFGDFAAEKKNQLELLRVMNSKKPQLDVTRATNKQMREEDQEEAAKRRKMSQKGKRKGGRQGPGGKRKGGPPSQGGKRKGGLGGKMNSGPPGLGGKRKGGQRPGGKRRK [RRS1] | 55.2 | 53 | 1.09 | -1.81
5 | MELERIVSAALLAFVQTHLPEADLSGLDEVIFSYVLGVLEDLGPSGPSEENFDMEAFTEMMEAYVPGFAHIPRGTIGDMMQKLSGQLSDARNKENLQPQSSGVQGQVPISPEPLQRPEMLKEETRSSAAAAADTQDEATGAEEELLPGVDVLLEVFPTCSVEQAQWVLAKARGDLEEAVQMLVEGKEEGPAAWEGPNQDLPRRLRGPQKDELKSFILQKYMMVDSAEDQKIHRPMAPKEAPKKLIRYIDNQVVSTKGERFKDVRNPEAEEMKATYINLKPARKYRFH [CUEDC2] | 46.8 | 51.7 | 0.134 | 0.417
6 | MELHILEHRLQVASVAKESIPLFTYGLIKLAFLSSKTRCKFFSLTETPEDYTIIVDEEGFLELPSSEHLSVADATWLALNVVSGGGSFSSSQPIGVTKIAKSVIAPLADQNISVFMLSTYQTDFILVRERDLPFVTHTLSSEFTILRVVNGETVAAENLGITNGFVKPKLVQRPVIHPLSSPSNRFCVTSLDPDTLPAVATLLMDVMFYSNGVKDPMATGDDCGHIRFFSFSLIEGYISLVMDVQTQQRFPSNLLFTSASGELWKMVRIGGQPLGFDECGIVAQISEPLAAADIPAYYISTFKFDHALVPEENINGVISALKVSQAEKH [GATSL2] | 56.4 | 57.8 | -0.149 | 0.084
7 | MELIQDTSRPPLEYVKGVPLIKYFAEALGPLQSFQARPDDLLINTYPKSGTTWVSQILDMIYQGGDLEKCNRAPIYVRVPFLEVNDPGEPSGLETLKDTPPPRLIKSHLPLALLPQTLLDQKVKVVYVARNPKDVAVSYYHFHRMEKAHPEPGTWDSFLEKFMAGEVSYGSWYQHVQEWWELSRTHPVLYLFYEDMKENPKREIQKILEFVGRSLPEETMDFMVQHTSFKEMKKNPMTNYTTVPQELMDHSISPFMRKGMAGDWKTTFTVAQNERFDADYAEKMAGCSLSFRSEL [SULT1A3] | 48.5 | 49.2 | -0.174 | 0.432
8 | MELIQDTSRPPLEYVKGVPLIKYFAEALGPLQSFQARPDDLLISTYPKSGTTWVSQILDMIYQGGDLEKCHRAPIFMRVPFLEFKAPGIPSGMETLKDTPAPRLLKTHLPLALLPQTLLDQKVKVVYVARNAKDVAVSYYHFYHMAKVHPEPGTWDSFLEKFMVGEVSYGSWYQHVQEWWELSRTHPVLYLFYEDMKENPKREIQKILEFVGRSLPEETVDFVVQHTSFKEMKKNPMTNYTTVPQEFMDHSISPFMRKGMAGDWKTTFTVAQNERFDADYAEKMAGCSLSFRSEL [SULT1A1] | – | 49.2 | -0.0949 | 0.0556
9 | MEPPNLYPVKLYVYDLSKGLARRLSPIMLGKQLEGIWHTSIVVHKDEFFFGSGGISSCPPGGTLLGPPDSVVDVGSTEVTEEIFLEYLSSLGESLFRGEAYNLFEHNCNTFSNEVAQFLTGRKIPSYITDLPSEVLSTPFGQALRPLLDSIQIQPPGGSSVGRPNGQS [DESI1] | 47.1 | 48.4 | -0.0645 | 0.341
